Test results: paper PMC7230020 (ACS chemical biology, 2020)
Like-named read-outs stand apart in the source and are kept apart here. Numbered stars: 1 amine (or outer) side, 2 acyl side, 3 side chain; on linkers, the order of the positions; unused ones are H or OH. Square brackets hold non-standard residues; d marks the D form. Acd = acridonylalanine, O=C([C@H](Cc1ccc2[nH]c3ccccc3c(=O)c2c1)N[*:1])[*:2]

Assays:
Experiment in all cases: fluorescence polarisation
[1] = target: T1, activated RecA (RecA*), E. coli RecA polymerised on ssDNA with ATPγS (E. coli, UniProt P0A7G6 1-353)
T1 sequence (looked up): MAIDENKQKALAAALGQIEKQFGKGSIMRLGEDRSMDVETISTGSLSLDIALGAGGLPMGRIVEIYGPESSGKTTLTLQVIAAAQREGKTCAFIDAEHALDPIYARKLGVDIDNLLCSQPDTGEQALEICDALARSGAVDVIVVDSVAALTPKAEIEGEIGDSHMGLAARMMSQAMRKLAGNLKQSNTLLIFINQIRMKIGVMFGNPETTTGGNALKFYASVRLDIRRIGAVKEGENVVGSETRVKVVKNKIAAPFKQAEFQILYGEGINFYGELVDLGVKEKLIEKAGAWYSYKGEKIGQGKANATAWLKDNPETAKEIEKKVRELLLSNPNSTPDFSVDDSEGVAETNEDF

[2] = target: T1, activated RecA (RecA*), E. coli RecA …; remark: listed apart in the source
[3] = target: T1, activated RecA (RecA*), E. coli RecA …; remark: listed apart in the source

B1: LexA-S119A-Q161δ, full-length E. coli LexA with acridonylalanine (Acd) at position 161 (natural protein)
chain: MKALTARQQEVFDLIRDHISQTGMPPTRAEIAQRLGFRSPNAAEEHLKALARKGVIEIVSGASRGIRLLQEEEEGLPLVGRVAAGEPLLAQQHIEGHYQVDPSLFKPNADFLLRVSGMAMKDIGIMDGDLLAVHKTQDVRNGQVVVARIDDEVTVKRLKK[Acd]GNKVELLPENSEFKPIVVDLRQQSFTIEGLAVGVIRNGDWL
Kd [1]: 790 nM
koff [1]: 0.048 s⁻¹
kon [1]: 61000 M⁻¹ s⁻¹
koff [2]: 0.093 s⁻¹

B2: LexA-S119A, unlabeled catalytically inactive full-length LexA(1–202) (natural protein, E. coli, UniProt P0A7C2 1-202, looked up)
chain: MKALTARQQEVFDLIRDHISQTGMPPTRAEIAQRLGFRSPNAAEEHLKALARKGVIEIVSGASRGIRLLQEEEEGLPLVGRVAAGEPLLAQQHIEGHYQVDPSLFKPNADFLLRVSGMAMKDIGIMDGDLLAVHKTQDVRNGQVVVARIDDEVTVKRLKKQGNKVELLPENSEFKPIVVDLRQQSFTIEGLAVGVIRNGDWL
binding result [3]: binds
